According to paper PMC4794898:

What was measured:
[1] = target: PF3D7_0919900 recombinant protein, KSVSF to KSASA (Plasmodium falciparum); experiment: ELISA; plates coated with 25 pmol/well of each recombinant Pip in PBS overnight at 4 °C; biotin-PfPP1 4 pmol/well in solution
[2] = target: PF3D7_0220000 recombinant protein with a stop in the second position of the KKVRF motif (Plasmodium falciparum); experiment: as above

biotin labeled PfPP1 (from UniProt Q8ILV1 1-304) (enzyme)
decrease of the binding against the wild protein (100 %) [1]: 70% | decrease of the binding against the wild protein (100 %) [2]: 86%
